From publication PMC2825239 come the findings set out here.

Substrate in the data set: O=C1C[C@@H](c2ccc(O)cc2)Oc2cc(O)cc(O)c21
Put plainly: cells, lysate or membranes. Particulars: NADPH 1.0 mM, 0.1 M sodium phosphate pH 7.0, 27°C (general assay conditions).

B1: CYP75A31 (Solanum lycopersicum) (protein)
chain: MALRINELFVAAIIYIIVHIIISKLITTVRERGRRLPLPPGPTGWPVIGALPLLGSMPHVALAKMAKKYGPIMYLKVGTCGMVVASTPNAAKAFLKTLDINFSNRPPNAGATHLAYNAQDMVFAPYGPRWKLLRKLSNLHMLGGKALENWANVRANELGHMLKSMFDASQDGECVVIADVLTFAMANMIGQVMLSKRVFVEKGVEVNEFKNMVVELMTVAGYFNIGDFIPKLAWMDIQGIEKGMKNLHKKFDDLLTKMFDEHEATSNERKENPDFLDVVMANRDNSEGERLSTTNIKALLLNLFTAGTDTSSSVIEWALAEMMKNPKIFKKAQQEMDQVIGKNRRLIESDIPNLPYLRAICKETFRKHPSTPLNLPRVSSEPCTVDGYYIPKNTRLSVNIWAIGRDPDVWENPLEFTPERFLSGKNAKIEPRGNDFELIPFGAGRRICAGTRMGIVVVEYILGTLVHSFDWKLPNNVIDINMEESFGLALQKAVPLEAMVTPRLSLDVYRC
Consider B1, for which, for the setting “ATR1 reductase”, the Km was determined as 1.20 µM.

B2: CYP75A8 (Catharanthus roseus) (protein)
chain: MALEKLVLFDFLAAISILILVQKFIQIVFLRSSSRIRLPPGPKGWPIIGALPYLGTMPHSILANMAKKYGPIMYLKLGTNGMVVASTPDAVKAFLRTLDMNFSNRPIDAGATHLAYNAQDMVFAHYGPKWKLLRKLSNLHMLGGKALENWSNVRATELGYMLQAMYESSRKGETVVVPEMLTYAMANMIGQVILSRRVFVTKSLESNEFKDMVVELMTTAGYFNIGDFIPSIAWMDLQGIERGMKRLHKKFDALLTKMLEEHKSSSHKRKEKPDFLDYVLANRDNSEGERLTTTNIKALLLNLFTAGTDTSSSVIEWAISEMLKNPTILKRAQEEMDQVIGRNRRLMESDIPKLPYLQAICKETFRKHPSTPLNLPRIAQKDCQVNGYYIPKGTRLSVNIWAIGRDPNVWENPLEFNPDRFLSGKMAKIEPRGNDFELIPFGAGRRICAGTRMGIVLVEYILGTLVHSFDWKLPFDDINELNMDESFGLALQKAVPLVAMVSPRLPINAYSP
Turning to B2, the Km (ATR1 reductase yeast expression system, assay conditions not separately printed) came to 0.83 µM.

Broadly, the Km is the concentration of substrate that gives half-maximal velocity.
